From patent publication US20100303785A1 (RAMOT AT TEL AVIV UNIVERSITY, published 2010)

Target: T1, Recombinant tau containing three tubulin binding repeats (3R) (Homo sapiens, UniProt P10636-5 1-410, limits assumed)
T1 construct: also called Tau protein 3R; 3R-tau
Test: dot blot: peptide on nitrocellulose, incubated with 3R tau, detected with tau5 antibody
Protocol: The membrane was further incubated with 2 μM tau-three microtubule binding domain repeats (1.5 hr, room temperature). The non-specific sites were blocked by soaking in a blocking solution (10 mM Tris, 6 mM NaCl, 0.05% Tween 20) that was supplemented with 5% low-fat milk (1 hr at room temperature). The membrane was incubated with primary antibody (tau5 antibody 1:1000), dissolved in 5% milk in blocking solution (12 hours at 4 C). The membrane was then washed three times with the blocking solution (3×10 min), incubated with secondary antibody conjugated with horseradish peroxidase (HRP) (1 hr at room temperature) and washed again three times with blocking solution (10 min×3). The membrane was incubated with ECL reagent (Western blotting detection system; Amersham Biosciences) for 1 min, covered and exposed Biomax Light Film (Kodak, Rochester, N.Y., USA).

T1 sequence (P10636 other isoform, or with tags, fused parts or gaps limits assumed): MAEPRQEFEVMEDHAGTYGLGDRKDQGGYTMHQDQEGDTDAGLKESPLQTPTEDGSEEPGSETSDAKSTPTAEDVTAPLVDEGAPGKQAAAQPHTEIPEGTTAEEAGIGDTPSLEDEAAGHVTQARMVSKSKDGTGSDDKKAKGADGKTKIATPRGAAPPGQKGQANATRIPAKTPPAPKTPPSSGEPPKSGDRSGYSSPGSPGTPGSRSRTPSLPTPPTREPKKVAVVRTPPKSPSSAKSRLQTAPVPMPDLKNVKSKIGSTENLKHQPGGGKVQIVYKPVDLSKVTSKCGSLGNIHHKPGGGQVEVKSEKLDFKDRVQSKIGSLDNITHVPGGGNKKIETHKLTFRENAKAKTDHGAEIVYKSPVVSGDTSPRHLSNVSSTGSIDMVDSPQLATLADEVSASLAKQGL

B1: vasoactive intestinal peptide VIP (peptide, UniProt P01282 125-152, looked up)
peptide: HSDAVFTDNYTRLRKQMAVKKYLNSILN
notes: Negative control peptide in the dot blot; the assay used the peptide itself; also called VIP peptide; control peptide
binding result: no binding
